# Assay results from the Immune Epitope Database (IEDB).
# Legend:
# HLA-A*03:01 [1] = test: IEDB peptide-MHC binding, purified MHC/competitive/fluorescence; ≥ and ≤ were set here for values at or beyond the usual limits of such assays
# HLA-A*11:01 [2] = test: as above
# HLA-A*24:02 [3] = test: as above
# HLA-C*14:02 = test: IEDB peptide-MHC binding, purified MHC/direct/fluorescence; filed as Kd, often an IC50 or EC50 that approximates it; ≥ and ≤ were set here for values at or beyond the usual limits of such assays
# HLA-B*07:02 = test: as above
# HLA-A*29:02 [4] = test: as above
# HLA-A*01:01 = test: as above
# HLA-A*02:01 [5] = test: IEDB peptide-MHC binding, purified MHC/competitive/fluorescence; ≥ and ≤ were set here for values at or beyond the usual limits of such assays
# HLA-C*05:01 = test: IEDB peptide-MHC binding, purified MHC/direct/fluorescence; filed as Kd, often an IC50 or EC50 that approximates it; ≥ and ≤ were set here for values at or beyond the usual limits of such assays; details: source organism: Influenza A virus H3N2
# HLA-B*44:02 = test: as above; details: source organism: Influenza A virus (A/Ck/HK/2133.1/2003(H5N1))
# HLA-B*40:01 = test: as above; details: source organism: Influenza A virus (A/Puerto Rico/8/34/Mount Sinai(H1N1))
# HLA-B*08:01 = test: as above; details: source organism: Influenza A virus (A/Ck/HK/2133.1/2003(H5N1))
# HLA-B*15:01 [6] = test: as above; details: source organism: Influenza A virus (A/Ck/HK/2133.1/2003(H5N1))
# HLA-B*08:02 = test: as above; details: source organism: Influenza A virus(A/swine/Shandong/fNY/2003(H9N2))
# HLA-B*27:05 = test: as above; details: source organism: Influenza A virus (A/Puerto Rico/8/34/Mount Sinai(H1N1))
# HLA-A*11:01 [7] = test: as above; details: source organism: Influenza A virus (A/Ck/HK/2133.1/2003(H5N1))
# HLA-B*58:01 = test: as above; details: source organism: Influenza A virus (A/Ck/HK/2133.1/2003(H5N1))
# HLA-A*02:01 [8] = test: as above; details: source organism: Influenza A virus (A/Ck/HK/2133.1/2003(H5N1))
# HLA-A*31:01 = test: as above; details: source organism: Influenza A virus (A/Ck/HK/2133.1/2003(H5N1))
# HLA-A*24:02 [9] = test: as above; details: source organism: Influenza A virus (A/Ck/HK/2133.1/2003(H5N1))
# HLA-B*39:01 = test: IEDB peptide-MHC binding, purified MHC/competitive/fluorescence; filed as Kd, often an IC50 or EC50 that approximates it; ≥ and ≤ were set here for values at or beyond the usual limits of such assays; details: source organism: Influenza A virus H3N2
# HLA-B*15:01 [10] = test: IEDB peptide-MHC binding, purified MHC/competitive/fluorescence; ≥ and ≤ were set here for values at or beyond the usual limits of such assays; details: source organism: Vaccinia virus
# HLA-B*15:03 = test: IEDB peptide-MHC binding, purified MHC/competitive/radioactivity; filed as Kd, often an IC50 or EC50 that approximates it; ≥ and ≤ were set here for values at or beyond the usual limits of such assays; details: source organism: Vaccinia virus WR
# HLA-A*03:01 [11] = test: IEDB peptide-MHC binding, purified MHC/competitive/fluorescence; filed as Kd, often an IC50 or EC50 that approximates it; ≥ and ≤ were set here for values at or beyond the usual limits of such assays; details: source organism: Entamoeba histolytica HM-1:IMSS
# HLA-A*02:19 = test: as above; details: source organism: Entamoeba histolytica HM-1:IMSS
# HLA-B*15:01 [12] = test: as above; details: source organism: Entamoeba histolytica HM-1:IMSS
# HLA-B*15:17 = test: as above; details: source organism: Entamoeba histolytica HM-1:IMSS
# HLA-B*18:01 = test: as above; details: source organism: Entamoeba histolytica HM-1:IMSS
# HLA-A*29:02 [13] = test: as above; details: source organism: Entamoeba histolytica HM-1:IMSS
# HLA-B*57:01 = test: as above; details: source organism: Entamoeba histolytica HM-1:IMSS
# HLA-A*02:01 [14] = test: as above; details: source organism: Entamoeba histolytica HM-1:IMSS
# HLA-B*46:01 = test: as above; details: source organism: Entamoeba histolytica HM-1:IMSS
# HLA-A*26:01 = test: as above; details: source organism: Entamoeba histolytica HM-1:IMSS
# HLA-B*51:01 = test: as above; details: source organism: Entamoeba histolytica HM-1:IMSS
# HLA-B*27:03 = test: as above; details: source organism: Entamoeba histolytica HM-1:IMSS
# [15] = source organism: Zaire ebolavirus
# [16] = source organism: Mycobacterium tuberculosis variant bovis BCG str. Pasteur 1173P2
# [17] = source organism: Mammarenavirus juninense
# [18] = source organism: Sudan ebolavirus
# [19] = source organism: Vaccinia virus
sequence,measurement,setting,value
AFLILPQAK,IC50,HLA-A*03:01 [1]; [15],20 µM
same,IC50,HLA-A*11:01 [2]; [15],14.1 µM
same,IC50,HLA-A*24:02 [3]; [15],26.9 µM
APINSATAM,Kd,HLA-C*14:02; [16],0.321 µM
APPPFRLPL,Kd,HLA-C*14:02; source organism: Mycobacterium tuberculosis H37Rv,0.714 µM
same,Kd,HLA-B*07:02; [16],0.0775 µM
HTEFQTVSF,Kd,HLA-A*29:02 [4]; [17],≥ 20 µM
same,Kd,HLA-A*01:01; [17],2.29 µM
ILGSLGLRK,IC50,HLA-A*03:01 [1]; [18],0.872 µM
same,IC50,HLA-A*11:01 [2]; [18],0.219 µM
same,IC50,HLA-A*02:01 [5]; [18],≥ 141 µM
IQNVPGPHR,IC50,HLA-A*03:01 [1]; [15],8.53 µM
same,IC50,HLA-A*11:01 [2]; [15],0.889 µM
same,IC50,HLA-A*02:01 [5]; [15],≥ 119 µM
same,IC50,HLA-A*24:02 [3]; [15],6.86 µM
LLQKYPPPR,IC50,HLA-A*03:01 [1]; [19],4.03 µM
same,IC50,HLA-A*11:01 [2]; [19],7.75 µM
same,IC50,HLA-A*02:01 [5]; [19],≥ 101 µM
RTNGASYAY,Kd,HLA-A*29:02 [4]; source organism: Mycobacterium tuberculosis str. Haarlem,≤ 0.001 µM
same,Kd,HLA-A*01:01; source organism: Mycobacterium tuberculosis,0.199 µM
SADPLASLL,Kd,HLA-C*05:01,≤ 0.001 µM
same,Kd,HLA-B*44:02,≥ 20 µM
same,Kd,HLA-B*40:01,3.25 µM
same,Kd,HLA-B*08:01,≥ 20 µM
same,Kd,HLA-B*15:01 [6],≥ 20 µM
same,Kd,HLA-B*08:02,≥ 20 µM
same,Kd,HLA-B*27:05,1.37 µM
same,Kd,HLA-A*11:01 [7],≥ 20 µM
same,Kd,HLA-B*58:01,≥ 20 µM
same,Kd,HLA-A*02:01 [8],≥ 20 µM
same,Kd,HLA-A*31:01,≥ 20 µM
same,Kd,HLA-A*24:02 [9],≥ 20 µM
same,Kd,HLA-B*07:02; source organism: Influenza A virus (A/Ck/HK/2133.1/2003(H5N1)),≥ 20 µM
same,Kd,HLA-B*39:01,0.157 µM
SIATNLEYK,IC50,HLA-A*03:01 [1]; [19],3.98 µM
same,IC50,HLA-A*11:01 [2]; [19],0.427 µM
SLYPNVCIF,IC50,HLA-A*03:01 [1]; [19],≥ 365 µM
same,IC50,HLA-B*15:01 [10],5.7 µM
same,IC50,HLA-A*02:01 [5]; [19],1.88 µM
same,IC50,HLA-A*24:02 [3]; [19],0.0384 µM
same,Kd,HLA-B*15:03,0.00494 µM
YLHIHPFKI,Kd,HLA-A*03:01 [11],≥ 20 µM
same,Kd,HLA-A*02:19,0.0678 µM
same,Kd,HLA-B*15:01 [12],≥ 20 µM
same,Kd,HLA-B*15:17,≥ 20 µM
same,Kd,HLA-B*18:01,≥ 20 µM
same,Kd,HLA-A*29:02 [13],≥ 20 µM
same,Kd,HLA-B*57:01,≥ 20 µM
same,Kd,HLA-A*02:01 [14],0.0061 µM
same,Kd,HLA-B*46:01,≥ 20 µM
same,Kd,HLA-A*26:01,≥ 20 µM
same,Kd,HLA-B*51:01,≥ 20 µM
same,Kd,HLA-B*27:03,≥ 20 µM
